Square brackets hold non-standard residues; d marks the D form. Ends that are not written are not given here. Cit = NC(=O)NCCC[C@H](N)C(=O)O
Assays:
Test in all cases: in vitro binding assay to recombinant MHC class II protein
[1] = system: MHC class II of the HLA DRB1 1001 genotype; set-up: species or system human; key to Binds to 1001: *0101: the listing of the allele in the column for the allele indicates binding; *0401: “0401” in the “Binds to 0401” column indicates binding of the peptide to MHC class II of the HLA DRB1 0401 genotype; *0404: the listing of the allele in the column for the allele indicates binding; *0405: the listing of the allele in the column for the allele indicates binding; *0408: the listing of the allele in the column for the allele indicates binding; *1001: the listing of the allele in the column for the allele indicates binding; “no” or no data indicates no binding to a protein of that genotype; details: recombinant MHC class II, HLA DRB1 1001
Description: (§1) Binding of the peptides to recombinant MHC class II protein of various alleles has been confirmed in an in vitro binding assay and the results are shown in Tables 1, 2 and 3. In table 1, 2 and 3, the listing of the allele in the column for the allele indicates binding. Thus “0401” in the “Binds to 0401” column indicates binding of the peptide to MHC class II of the HLA DRB1 0401 genotype. “no” or no data indicates no binding to a protein of that genotype. Empty boxes indicate no binding or that binding has not been determined. In the tables it is also indicated if the peptide has a citrulline residue, where “yes” indicates the presence of a citrulline residue and “no” indicates the absence of a citrulline residue.

[2] = target: MHC class II of the HLA DRB1 0401 genotype (Homo sapiens, UniProt P01903+P01911, A100K/A169T/F76Y/I96L/K127E/L162R/M171V/N62H/P40V/Q125Y/R42H/S133A/S149N/S66Y/V115G/V209L/W38E); set-up: key to Binds to 0401: *0101: the listing of the allele in the column for the allele indicates binding; *0401: “0401” in the “Binds to 0401” column indicates binding of the peptide to MHC class II of the HLA DRB1 0401 genotype; *0404: the listing of the allele in the column for the allele indicates binding; *0405: the listing of the allele in the column for the allele indicates binding; *0408: the listing of the allele in the column for the allele indicates binding; *1001: the listing of the allele in the column for the allele indicates binding; “no” or no data indicates no binding to a protein of that genotype; details: recombinant MHC class II, HLA DRB1 0401
Description: as §1
Thus for these peptides no binding to HLA-DR0401 was observed when citrulline was exchanged with the original amino acid arginine (Table 4). No binding of the citrullinated peptides was seen to HLA-DR 03 or 02 variants.

[3] = system: MHC class II of the HLA DRB1 0408 genotype; set-up: species or system human; key: *0101: the listing of the allele in the column for the allele indicates binding; *0401: “0401” in the “Binds to 0401” column indicates binding of the peptide to MHC class II of the HLA DRB1 0401 genotype; *0404: the listing of the allele in the column for the allele indicates binding; *0405: the listing of the allele in the column for the allele indicates binding; *0408: the listing of the allele in the column for the allele indicates binding; *1001: the listing of the allele in the column for the allele indicates binding; “no” or no data indicates no binding to a protein of that genotype
Description: as §1

[4] = target: MHC class II of the HLA DRB1 0101 genotype (Homo sapiens, UniProt P01903+P01911, A100R/D57E/F55L/F60I/F76Y/I96L/L162R/M171V/P40L/Q125E/R42F/V115G/Y59C); set-up: key: *0101: the listing of the allele in the column for the allele indicates binding; *0401: “0401” in the “Binds to 0401” column indicates binding of the peptide to MHC class II of the HLA DRB1 0401 genotype; *0404: the listing of the allele in the column for the allele indicates binding; *0405: the listing of the allele in the column for the allele indicates binding; *0408: the listing of the allele in the column for the allele indicates binding; *1001: the listing of the allele in the column for the allele indicates binding; “no” or no data indicates no binding to a protein of that genotype
Description: as §1

[5] = target: MHC class II of the HLA DRB1 0405 genotype (Homo sapiens, UniProt P01903+P01911, A100R/A169T/D86S/F76Y/I96L/K127E/L162R/M171V/N62H/P40V/Q125Y/R42H/S133A/S149N/S66Y/V115G/V209L/W38E); set-up: key: *0101: the listing of the allele in the column for the allele indicates binding; *0401: “0401” in the “Binds to 0401” column indicates binding of the peptide to MHC class II of the HLA DRB1 0401 genotype; *0404: the listing of the allele in the column for the allele indicates binding; *0405: the listing of the allele in the column for the allele indicates binding; *0408: the listing of the allele in the column for the allele indicates binding; *1001: the listing of the allele in the column for the allele indicates binding; “no” or no data indicates no binding to a protein of that genotype
Description: as §1

[6] = target: MHC class II of the HLA DRB1 0404 genotype (Homo sapiens, UniProt P01903+P01911, A100R/A169T/F76Y/I96L/K127E/L162R/M171V/N62H/P40V/Q125Y/R42H/S133A/S149N/S66Y/V209L/W38E); set-up: key: *0101: the listing of the allele in the column for the allele indicates binding; *0401: “0401” in the “Binds to 0401” column indicates binding of the peptide to MHC class II of the HLA DRB1 0401 genotype; *0404: the listing of the allele in the column for the allele indicates binding; *0405: the listing of the allele in the column for the allele indicates binding; *0408: the listing of the allele in the column for the allele indicates binding; *1001: the listing of the allele in the column for the allele indicates binding; “no” or no data indicates no binding to a protein of that genotype
Description: as §1

| Binds to 1001 [1] | Binds to 0401 [2] | Binds to 0408 [3] | Binds to 0101 [4] | Binds to 0405 [5] | Binds to 0404 [6] | Substance |
| --- | --- | --- | --- | --- | --- | --- |
| *1001 |  |  |  |  |  | type II collagen 263: human collagen type II peptide, not citrullinated (GDRGEAGAQGPMGPS; listed as Homo sapiens) |
| *1001 | *0401 | *0408 | *0101 | *0405 | *0404 | a-enolase 57: human alpha-enolase peptide, not citrullinated (KSFIKDYPVVSIEDP; listed as Homo sapiens) |
|  | *0401 |  | *0101 | no | no | vimentin 105: citrullinated human vimentin peptide (YAT[Cit]SSAV[Cit]L[Cit]SSVP; listed as Homo sapiens) |
| *1001 |  |  |  |  |  | type II collagen 268: human collagen type II peptide, not citrullinated (PQGPRGDKGEAGEPG; listed as Homo sapiens) |
|  | *0401 |  | *0101 | *0405 | *0404 | vimentin 106: citrullinated human vimentin peptide (SAV[Cit]L[Cit]SSVPGV[Cit]LL; listed as Homo sapiens) |
|  | *0401 |  | no | no | no | vimentin 108: citrullinated human vimentin peptide (GVXLLQDSVDFSLAD; citrullinated; MOD_RES (3)..(3) Citrulline; listed as Homo sapiens) |
|  | *0401 |  | no | no |  | vimentin 34: human vimentin peptide, not citrullinated (NDKARVEVERDNLAE; listed as Homo sapiens) |
|  | *0401 |  | *0101 | no | No | vimentin 111: citrullinated human vimentin peptide (FKNT[Cit]TNEKVELQEL; listed as Homo sapiens) |
|  | *0401 |  | *0101 | no | *0404 | vimentin 1: human vimentin peptide, not citrullinated (MSTRSVSSSSYRRMF; listed as Homo sapiens) |
|  | *0401 |  | no | no | No | vimentin 133: citrullinated human vimentin peptide (DNASLA[Cit]LDLE[Cit]KVE; listed as Homo sapiens) |
| *1001 |  |  |  |  |  | type II collagen 362: citrullinated human collagen type II peptide (PKGANGDPG[Cit]PGEPG; listed as Homo sapiens) |
|  | *0401 |  | *0101 | *0405 |  | vimentin 64: human vimentin peptide, not citrullinated (STEYRRQVQSLTCEV; listed as Homo sapiens) |
|  | *0401 |  | *0101 | *0405 | *0404 | type II collagen 242: human collagen type II peptide, not citrullinated (GIVGLPGQRGERGFP; listed as Homo sapiens) |
| *1001 |  | *0408 |  |  |  | type II collagen 384: citrullinated human collagen type II peptide (QGP[Cit]GLPGTPGTDGP; listed as Homo sapiens) |
|  | no |  |  | *0405 | *0404 | type II collagen 241: human collagen type II peptide, not citrullinated (LAGQRGIVGLPGQRG; listed as Homo sapiens) |
|  |  |  | *0101 | no | No | vimentin 117: citrullinated human vimentin peptide (LLAELEQLKGQGKS[Cit]; listed as Homo sapiens) |
|  | *0401 |  | *0101 | *0405 | *0404 | vimentin 3: human vimentin peptide, not citrullinated (YRRMFGGPGTASRPS; listed as Homo sapiens) |
|  | *0401 |  | no | no | no | vimentin 81: human vimentin peptide, not citrullinated (RKLLEGEESRISLPL; listed as Homo sapiens) |
|  |  |  | *0101 | *0405 |  | vimentin 77: human vimentin peptide, not citrullinated (REYQDLLNVKMALDI; listed as Homo sapiens) |
|  | *0401 |  |  | *0405 | *0404 | type II collagen 411: citrullinated human collagen type II peptide (GIVGLPGQ[Cit]GE[Cit]GFP; listed as Homo sapiens) |
|  | no |  | no | no | *0404 | vimentin 166: citrullinated human vimentin peptide (THSK[Cit]TLLIKTVET[Cit]; listed as Homo sapiens) |
|  | *0401 |  | *0101 | no | *0404 | vimentin 104: citrullinated human vimentin peptide (SPGGVYAT[Cit]SSAV[Cit]L; listed as Homo sapiens) |
|  | *0401 |  | no | no | *0404 | vimentin 33: human vimentin peptide, not citrullinated (VDQLTNDKARVEVER; listed as Homo sapiens) |

Source: patent publication US10774129B2, “Complexes of types of MHC class II that bind to collagen type II peptides and their use on diagnosis and treatment” (FRAUNHOFER-GESELLSCHAFT ZUR FÖRDERUNG DER ANGEWANDTEN …, priority 2011, dated 2020)
